Source: the supplement of paper PMC10126150
± gives the standard deviation of the averaged measurements.

Test system: ATP
Assay: switch fluorescence ratio, 500 uM ATP over buffer (Cy3 cluster intensity, sum of 5 cycles each) (fold (ratio)); higher = stronger signal-on switching upon ATP binding; sequences stand for … in TCGTCGGCAGCGTCAGATGTGTATAAGAGACAGTTTTTTTTTTTTTTTTTTTTTTTTT…TC
Conditions: aptamer strand: ATP DNA aptamer (quencher-CACCTGGGGGAGTATTGCGGAGGAAGG + anchor), 100 nM annealed; ATP concentration: 500 uM
In short: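 Clusters carrying Cy3-labelled switching strands on a modified Illumina MiSeq flow-cell were annealed to 100 nM quencher-labelled ATP aptamer and imaged in selection buffer. They were imaged again after 15 min with 500 uM ATP at 22 °C, over five buffer/ATP cycles with NaOH stripping and re-annealing in between. For each cluster, the fluorescence ratio is the summed Cy3 intensity of the target cycles divided by that of the buffer cycles, averaged per switch-domain sequence. Clusters outside 100-1000 RFU were left out.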
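Further: ATP exposure 15 min at 22 °C before imaging.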

TGCTGGGGGC
switch fluorescence ratio: 0.971 ± 0.022

TGCTGGGGTA
switch fluorescence ratio: 0.99 ± 0.024

TGCTGTAGGG
switch fluorescence ratio: 0.966 ± 0.053

TGCTGTGGAA
switch fluorescence ratio: 1.011 ± 0.0096

TGCTTGCAAA
switch fluorescence ratio: 1.06 ± 0.069

TGCTTGGGGG
switch fluorescence ratio: 0.979 ± 0.016

TGCTTGGGTC
switch fluorescence ratio: 1.01 ± 0.028

TGCTTGTGTT
switch fluorescence ratio: 0.9912 ± 0.0064

TGCTTGTTAC
switch fluorescence ratio: 1.03 ± 0.018

TGCTTTAGGT
switch fluorescence ratio: 0.9922 ± 0.0092

TGCTTTATAT
switch fluorescence ratio: 1.18 ± 0.29

TGCTTTTGGG
switch fluorescence ratio: 0.976 ± 0.0021

TGCTTTTTCA
switch fluorescence ratio: 0.9895 ± 0.0042

TGGAAAGCCT
switch fluorescence ratio: 1.05 ± 0.1

TGGAAAGTGG
switch fluorescence ratio: 0.9818 ± 0.005

TGGAAAGTTT
switch fluorescence ratio: 1 ± 0.052

TGGAAATACG
switch fluorescence ratio: 1.06 ± 0.013

TGGAACGGAG
switch fluorescence ratio: 0.98 ± 0.021

TGGAACGGTT
switch fluorescence ratio: 1.04 ± 0.047

TGGAAGCGTT
switch fluorescence ratio: 0.98 ± 0.041

TGGAATGCGC
switch fluorescence ratio: 1.24 ± 0.36

TGGAATTAGC
switch fluorescence ratio: 1.04 ± 0.054

TGGAATTGCC
switch fluorescence ratio: 1.024 ± 0.0089

TGGAATTGGT
switch fluorescence ratio: 1.02 ± 0.032

TGGAATTGTT
switch fluorescence ratio: 1 ± 0.026

TGGACAATGG
switch fluorescence ratio: 1.03 ± 0.051

TGGACCCGGC
switch fluorescence ratio: 0.9858 ± 0.0054

TGGACGTGAT
switch fluorescence ratio: 1.83 ± 1

TGGACTACGC
switch fluorescence ratio: 1.06 ± 0.012

TGGACTAGGG
switch fluorescence ratio: 0.975 ± 0.049

TGGACTGGGG
switch fluorescence ratio: 0.9861 ± 0.0056

TGGACTTGGT
switch fluorescence ratio: 0.97 ± 0.017

TGGAGAGGAT
switch fluorescence ratio: 0.9825 ± 0.0026

TGGAGATTGT
switch fluorescence ratio: 0.943 ± 0.032

TGGAGGAAGA
switch fluorescence ratio: 1.04 ± 0.055

TGGAGGAGCG
switch fluorescence ratio: 0.955 ± 0.036

TGGAGGGATG
switch fluorescence ratio: 1.01 ± 0.054

TGGAGGGATT
switch fluorescence ratio: 1.02 ± 0.013

TGGAGGGGGA
switch fluorescence ratio: 0.999 ± 0.038

TGGAGGGTTG
switch fluorescence ratio: 1 ± 0.026

TGGAGGGTTT
switch fluorescence ratio: 1.07 ± 0.1

TGGAGGTGTT
switch fluorescence ratio: 1.03 ± 0.035

TGGAGTAGAT
switch fluorescence ratio: 0.986 ± 0.038

TGGAGTCAGG
switch fluorescence ratio: 1.05 ± 0.049

TGGAGTGTGG
switch fluorescence ratio: 0.912 ± 0.087

TGGATAAAGT
switch fluorescence ratio: 0.985 ± 0.013

TGGATAAGCG
switch fluorescence ratio: 1 ± 0.032

TGGATAAGTG
switch fluorescence ratio: 0.998 ± 0.048

TGGATACCCT
switch fluorescence ratio: 1.0117 ± 0.00031

TGGATATTTA
switch fluorescence ratio: 0.978 ± 0.012

TGGATCACTT
switch fluorescence ratio: 1.01 ± 0.028

TGGATCATAG
switch fluorescence ratio: 0.999 ± 0.038

TGGATCTTAT
switch fluorescence ratio: 1.01 ± 0.034

TGGATGAATT
switch fluorescence ratio: 0.9981 ± 0.0045

TGGATGATGG
switch fluorescence ratio: 0.961 ± 0.019

TGGATTACTT
switch fluorescence ratio: 1.02 ± 0.026

TGGATTAGGC
switch fluorescence ratio: 1.01 ± 0.048

TGGATTTAAT
switch fluorescence ratio: 1.01 ± 0.049

TGGATTTCGC
switch fluorescence ratio: 1 ± 0.027

TGGATTTTTG
switch fluorescence ratio: 0.9666 ± 0.0042

TGGCACGACA
switch fluorescence ratio: 1.09 ± 0.042

TGGCACTTTT
switch fluorescence ratio: 1.006 ± 0.0063

TGGCAGCAGG
switch fluorescence ratio: 1 ± 0.024

TGGCAGGCAC
switch fluorescence ratio: 1.04 ± 0.012

TGGCATCGGG
switch fluorescence ratio: 1.01 ± 0.042

TGGCCAAATT
switch fluorescence ratio: 1.03 ± 0.019

TGGCCGGCTT
switch fluorescence ratio: 1.044 ± 0.0066

TGGCCGTCAT
switch fluorescence ratio: 0.98 ± 0.032

TGGCCTTATT
switch fluorescence ratio: 0.992 ± 0.011

TGGCCTTGTG
switch fluorescence ratio: 1.02 ± 0.051

TGGCGAAGTT
switch fluorescence ratio: 0.997 ± 0.024

TGGCGAGGCG
switch fluorescence ratio: 1.046 ± 0.0077

TGGCGCGTAC
switch fluorescence ratio: 1.81 ± 0.095

TGGCGGGGCT
switch fluorescence ratio: 0.9972 ± 0.0064

TGGCGTGGGG
switch fluorescence ratio: 1.01 ± 0.021

TGGCGTTAGG
switch fluorescence ratio: 0.977 ± 0.019

TGGCTCTGGG
switch fluorescence ratio: 1.04 ± 0.033

TGGCTGCCGT
switch fluorescence ratio: 0.988 ± 0.032

TGGCTGGGGG
switch fluorescence ratio: 1.09 ± 0.1

TGGGAAAAAA
switch fluorescence ratio: 0.985 ± 0.035

TGGGAAAACG
switch fluorescence ratio: 1.05 ± 0.078

TGGGAAAAGG
switch fluorescence ratio: 1.16 ± 0.31

TGGGAAATAC
switch fluorescence ratio: 2.11 ± 0.12

TGGGAAATCG
switch fluorescence ratio: 1.03 ± 0.014

TGGGAACGAG
switch fluorescence ratio: 1.01 ± 0.017

TGGGAACGTC
switch fluorescence ratio: 1.0205 ± 2.8e-05

TGGGAACTTG
switch fluorescence ratio: 0.991 ± 0.028

TGGGAATAAT
switch fluorescence ratio: 1.03 ± 0.031

TGGGAATCAC
switch fluorescence ratio: 1.05 ± 0.017

TGGGAATGAA
switch fluorescence ratio: 0.992 ± 0.021

TGGGAATGGC
switch fluorescence ratio: 0.9555 ± 0.0094

TGGGAATTTC
switch fluorescence ratio: 1.035 ± 0.0034

TGGGACAAGC
switch fluorescence ratio: 0.979 ± 0.032

TGGGACAGCG
switch fluorescence ratio: 0.957 ± 0.031

TGGGACCCAT
switch fluorescence ratio: 1.02 ± 0.055

TGGGACCGGG
switch fluorescence ratio: 1 ± 0.059

TGGGACCTGG
switch fluorescence ratio: 1.07 ± 0.15

TGGGACGGGG
switch fluorescence ratio: 0.984 ± 0.025

TGGGACTGTA
switch fluorescence ratio: 1.14 ± 0.073

TGGGAGGTTG
switch fluorescence ratio: 0.994 ± 0.04

TGGGAGTAGC
switch fluorescence ratio: 0.9907 ± 0.0091

TGGGAGTTTC
switch fluorescence ratio: 0.978 ± 0.01

TGGGAGTTTT
switch fluorescence ratio: 1.02 ± 0.047

TGGGATAGAA
switch fluorescence ratio: 0.996 ± 0.019

TGGGATATA
switch fluorescence ratio: 1.01 ± 0.056

TGGGATCAGT
switch fluorescence ratio: 0.99 ± 0.021

TGGGATGTTA
switch fluorescence ratio: 0.9872 ± 0.0074

TGGGATTGAC
switch fluorescence ratio: 1.06 ± 0.019

TGGGATTTGA
switch fluorescence ratio: 0.993 ± 0.023

TGGGATTTTG
switch fluorescence ratio: 1.014 ± 0.0028

TGGGCAGATA
switch fluorescence ratio: 1.08 ± 0.1

TGGGCAGGCA
switch fluorescence ratio: 1 ± 0.028

TGGGCAGGGT
switch fluorescence ratio: 1.02 ± 0.016

TGGGCATAAA
switch fluorescence ratio: 1.006 ± 0.0012

TGGGCGCATT
switch fluorescence ratio: 1.68 ± 0.88

TGGGCGCCGT
switch fluorescence ratio: 0.957 ± 0.017

TGGGCGGGGA
switch fluorescence ratio: 1.03 ± 0.048

TGGGCTAAGC
switch fluorescence ratio: 1.03 ± 0.028

TGGGCTCGCC
switch fluorescence ratio: 1 ± 0.025

TGGGCTGTTT
switch fluorescence ratio: 1.012 ± 0.01

TGGGCTTAAG
switch fluorescence ratio: 1.02 ± 0.026

TGGGCTTCGT
switch fluorescence ratio: 0.994 ± 0.038

TGGGGAAACG
switch fluorescence ratio: 0.9455 ± 0.0068

TGGGGAATTG
switch fluorescence ratio: 0.969 ± 0.053

TGGGGAGAAA
switch fluorescence ratio: 1 ± 0.031

TGGGGAGGCT
switch fluorescence ratio: 1.04 ± 0.055

TGGGGAGGGC
switch fluorescence ratio: 1 ± 0.035

TGGGGATACC
switch fluorescence ratio: 0.987 ± 0.035

TGGGGATAGG
switch fluorescence ratio: 1.01 ± 0.022

TGGGGATCGG
switch fluorescence ratio: 0.973 ± 0.025

TGGGGATTAA
switch fluorescence ratio: 0.991 ± 0.013

TGGGGATTTA
switch fluorescence ratio: 1.003 ± 0.0072

TGGGGCACAT
switch fluorescence ratio: 1.02 ± 0.022

TGGGGCCCCG
switch fluorescence ratio: 1 ± 0.013

TGGGGCCGTG
switch fluorescence ratio: 1.04 ± 0.04

TGGGGCGAAA
switch fluorescence ratio: 0.997 ± 0.089

TGGGGCGAGG
switch fluorescence ratio: 1.01 ± 0.014

TGGGGCTAGG
switch fluorescence ratio: 0.993 ± 0.018

TGGGGCTGGT
switch fluorescence ratio: 0.99 ± 0.018

TGGGGCTTGG
switch fluorescence ratio: 1.01 ± 0.051

TGGGGGAATT
switch fluorescence ratio: 1 ± 0.029

TGGGGGACCC
switch fluorescence ratio: 1 ± 0.061

TGGGGGAGGG
switch fluorescence ratio: 1 ± 0.054

TGGGGGATG
switch fluorescence ratio: 0.971 ± 0.018

TGGGGGCGCG
switch fluorescence ratio: 0.984 ± 0.042

TGGGGGCTTG
switch fluorescence ratio: 0.993 ± 0.024

TGGGGGGACT
switch fluorescence ratio: 1.02 ± 0.029

TGGGGGGATC
switch fluorescence ratio: 1.009 ± 0.0082

TGGGGGGG
switch fluorescence ratio: 1 ± 0.024

TGGGGGGGA
switch fluorescence ratio: 1.03 ± 0.031

TGGGGGGGCT
switch fluorescence ratio: 1.02 ± 0.036

TGGGGGGTTA
switch fluorescence ratio: 0.995 ± 0.024

TGGGGGTAAT
switch fluorescence ratio: 0.992 ± 0.029

TGGGGGTACG
switch fluorescence ratio: 1.028 ± 0.0016

TGGGGGTAGG
switch fluorescence ratio: 1.01 ± 0.027

TGGGGGTGAG
switch fluorescence ratio: 1 ± 0.029

TGGGGGTGCA
switch fluorescence ratio: 1.01 ± 0.035

TGGGGGTGGC
switch fluorescence ratio: 1.01 ± 0.052

TGGGGGTGGG
switch fluorescence ratio: 1.02 ± 0.044

TGGGGGTGTA
switch fluorescence ratio: 1.05 ± 0.039

TGGGGGTTTA
switch fluorescence ratio: 1.03 ± 0.019

TGGGGTACAT
switch fluorescence ratio: 0.991 ± 0.016

TGGGGTAGCA
switch fluorescence ratio: 1.01 ± 0.029

TGGGGTAGTT
switch fluorescence ratio: 0.995 ± 0.01

TGGGGTATGT
switch fluorescence ratio: 1 ± 0.031

TGGGGTCAAA
switch fluorescence ratio: 0.995 ± 0.036

TGGGGTCATG
switch fluorescence ratio: 0.9887 ± 0.0096

TGGGGTGGTG
switch fluorescence ratio: 0.9992 ± 0.0038

TGGGGTGTGG
switch fluorescence ratio: 1.23 ± 0.36

TGGGGTGTTG
switch fluorescence ratio: 0.983 ± 0.011

TGGGGTTCGA
switch fluorescence ratio: 0.975 ± 0.024

TGGGGTTGTA
switch fluorescence ratio: 1.01 ± 0.056

TGGGGTTGTT
switch fluorescence ratio: 0.985 ± 0.033

TGGGGTTTGA
switch fluorescence ratio: 0.997 ± 0.032

TGGGTAACGA
switch fluorescence ratio: 0.962 ± 0.021

TGGGTAATCC
switch fluorescence ratio: 1.03 ± 0.025

TGGGTACTTT
switch fluorescence ratio: 0.994 ± 0.016

TGGGTAGGAT
switch fluorescence ratio: 1.02 ± 0.018

TGGGTAGGGA
switch fluorescence ratio: 0.9759 ± 0.0093

TGGGTAGTGT
switch fluorescence ratio: 1 ± 0.026

TGGGTATCTT
switch fluorescence ratio: 1.03 ± 0.061

TGGGTATTCT
switch fluorescence ratio: 0.945 ± 0.024

TGGGTATTGG
switch fluorescence ratio: 1 ± 0.03

TGGGTCAGTC
switch fluorescence ratio: 1.05 ± 0.021

TGGGTCATTT
switch fluorescence ratio: 0.99 ± 0.034

TGGGTCGGCA
switch fluorescence ratio: 1.05 ± 0.023

TGGGTCGGGC
switch fluorescence ratio: 0.9905 ± 0.009

TGGGTCTCTT
switch fluorescence ratio: 1.01 ± 0.008

TGGGTGAGTT
switch fluorescence ratio: 1.02 ± 0.019

TGGGTGATAG
switch fluorescence ratio: 0.99 ± 0.035

TGGGTGATCG
switch fluorescence ratio: 1.03 ± 0.067

TGGGTGCGG
switch fluorescence ratio: 0.984 ± 0.026

TGGGTGGAGA
switch fluorescence ratio: 1.02 ± 0.021

TGGGTGGGAT
switch fluorescence ratio: 1.002 ± 0.009

TGGGTGGGTA
switch fluorescence ratio: 1.03 ± 0.026

TGGGTGGGTC
switch fluorescence ratio: 1.05 ± 0.069

TGGGTGGGTG
switch fluorescence ratio: 1.04 ± 0.053

TGGGTGGTGT
switch fluorescence ratio: 1.016 ± 0.0034

TGGGTGTCGC
switch fluorescence ratio: 0.9672 ± 0.0039

TGGGTGTCGT
switch fluorescence ratio: 1.02 ± 0.081
